# Results: US10941182 (Amgen, dated 2021)
# Starred links: 1 amine or outer side, 2 acyl side, 3 side chain; linkers in the order of their positions; H or OH if unused. Non-standard residues stand in square brackets, D forms with d. *: point of attachment. AC4Abu = α-carboxy-4-aminobutyric acid, O=C(C(CCN[*:1])C(=O)[*:3])[*:2]; Oic = O=C(O)[C@@H]1C[C@@H]2CCCC[C@@H]2N1; Phe(4-Cl) = N[C@@H](Cc1ccc(Cl)cc1)C(=O)O; d(β3hF) = N[C@@H](CC(=O)O)Cc1ccccc1; NMeR = CN[C@@H](CCCNC(=N)N)C(=O)O; Palmitoyl = CCCCCCCCCCCCCCCC(=O)*; β3hF = N[C@H](CC(=O)O)Cc1ccccc1; Cha = N[C@@H](CC1CCCCC1)C(=O)O; αMeP = C[C@@]1(C(=O)O)CCCN1; β3hP = O=C(O)C[C@@H]1CCCN1; Ac6c = NC1(C(=O)O)CCCCC1; Nle = CCCC[C@H](N)C(=O)O; Ac5c = NC1(C(=O)O)CCCC1; AEEA = NCCOCCOCC(=O)O; Aib = CC(C)(N)C(=O)O; Nip = nipecotic acid; βAla = NCCC(=O)O
# Legend:
# [1] = molecular target: T1, human APJ receptor (human, UniProt P35414 1-380); experiment: cell-based or functional assay
# T1 sequence (looked up): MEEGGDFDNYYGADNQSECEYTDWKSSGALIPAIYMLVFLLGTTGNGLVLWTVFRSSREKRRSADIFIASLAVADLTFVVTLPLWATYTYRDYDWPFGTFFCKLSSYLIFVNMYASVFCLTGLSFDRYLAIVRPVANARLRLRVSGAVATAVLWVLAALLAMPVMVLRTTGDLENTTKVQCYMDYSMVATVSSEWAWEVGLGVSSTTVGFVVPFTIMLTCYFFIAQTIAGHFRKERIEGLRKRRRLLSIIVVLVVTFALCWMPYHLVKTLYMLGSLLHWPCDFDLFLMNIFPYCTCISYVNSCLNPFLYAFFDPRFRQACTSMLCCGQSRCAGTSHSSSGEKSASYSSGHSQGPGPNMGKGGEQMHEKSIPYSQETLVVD
# [2] = molecular target: T2, rat APJ receptor (rat, UniProt Q9JHG3 1-377); experiment: cell-based or functional assay
# T2 sequence (looked up): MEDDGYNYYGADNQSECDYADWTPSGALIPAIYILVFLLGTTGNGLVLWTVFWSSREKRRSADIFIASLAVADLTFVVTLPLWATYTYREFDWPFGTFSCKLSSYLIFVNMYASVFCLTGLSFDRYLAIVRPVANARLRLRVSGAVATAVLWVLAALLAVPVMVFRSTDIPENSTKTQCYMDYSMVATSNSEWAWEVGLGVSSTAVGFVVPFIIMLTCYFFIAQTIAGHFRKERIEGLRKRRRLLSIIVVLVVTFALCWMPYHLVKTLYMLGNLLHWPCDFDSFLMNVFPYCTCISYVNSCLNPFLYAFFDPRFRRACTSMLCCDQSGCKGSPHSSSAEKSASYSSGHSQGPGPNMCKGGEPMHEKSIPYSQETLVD
Binder,EC50 Human APJ Receptor [1],EC50 Rat APJ Receptor [2]
Palmitoyl-[AC4Abu][AEEA][AEEA][dQ]RP[NMeR][Cha]SHKG[Oic][Nle][Aib][d(β3hF)]-OH (SMILES CCCCCCCCCCCCCCCC(=O)NCCC(C(=O)O)C(=O)NCCOCCOCC(=O)NCCOCCOCC(=O)N[C@H](CCC(N)=O)C(=O)N[C@@H](CCCNC(=N)N)C(=O)N1CCC[C@H]1C(=O)N(C)[C@@H](CCCNC(=N)N)C(=O)N[C@@H](CC1CCCCC1)C(=O)N[C@@H](CO)C(=O)N[C@@H](Cc1c[nH]cn1)C(=O)N[C@@H](CCCCN)C(=O)NCC(=O)N1[C@H](C(=O)N[C@@H](CCCC)C(=O)NC(C)(C)C(=O)N[C@@H](CC(=O)O)Cc2ccccc2)C[C@@H]2CCCC[C@@H]21) [SEQ ID NO: 569],1 nM,0.991 nM
Palmitoyl-[AC4Abu][AEEA][AEEA][dQ]RP[NMeR][Cha]SHKG[Oic][Nle][βAla][d(β3hF)]-OH (SMILES CCCCCCCCCCCCCCCC(=O)NCCC(C(=O)O)C(=O)NCCOCCOCC(=O)NCCOCCOCC(=O)N[C@H](CCC(N)=O)C(=O)N[C@@H](CCCNC(=N)N)C(=O)N1CCC[C@H]1C(=O)N(C)[C@@H](CCCNC(=N)N)C(=O)N[C@@H](CC1CCCCC1)C(=O)N[C@@H](CO)C(=O)N[C@@H](Cc1c[nH]cn1)C(=O)N[C@@H](CCCCN)C(=O)NCC(=O)N1[C@H](C(=O)N[C@@H](CCCC)C(=O)NCCC(=O)N[C@@H](CC(=O)O)Cc2ccccc2)C[C@@H]2CCCC[C@@H]21) [SEQ ID NO: 572],1.1 nM,7.68 nM
Palmitoyl-[AC4Abu][AEEA][AEEA][dQ]RP[NMeR][Cha]SHKG[Oic][Aib][Phe(4-Cl)]-OH (SMILES CCCCCCCCCCCCCCCC(=O)NCCC(C(=O)O)C(=O)NCCOCCOCC(=O)NCCOCCOCC(=O)N[C@H](CCC(N)=O)C(=O)N[C@@H](CCCNC(=N)N)C(=O)N1CCC[C@H]1C(=O)N(C)[C@@H](CCCNC(=N)N)C(=O)N[C@@H](CC1CCCCC1)C(=O)N[C@@H](CO)C(=O)N[C@@H](Cc1c[nH]cn1)C(=O)N[C@@H](CCCCN)C(=O)NCC(=O)N1[C@H](C(=O)NC(C)(C)C(=O)N[C@@H](Cc2ccc(Cl)cc2)C(=O)O)C[C@@H]2CCCC[C@@H]21) [SEQ ID NO: 580],0.462 nM,0.736 nM
Palmitoyl-[AC4Abu][AEEA][AEEA][dQ]RP[NMeR][Cha]SHKG[Oic][Nle][αMeP][d(β3hF)]-OH (SMILES CCCCCCCCCCCCCCCC(=O)NCCC(C(=O)O)C(=O)NCCOCCOCC(=O)NCCOCCOCC(=O)N[C@H](CCC(N)=O)C(=O)N[C@@H](CCCNC(=N)N)C(=O)N1CCC[C@H]1C(=O)N(C)[C@@H](CCCNC(=N)N)C(=O)N[C@@H](CC1CCCCC1)C(=O)N[C@@H](CO)C(=O)N[C@@H](Cc1c[nH]cn1)C(=O)N[C@@H](CCCCN)C(=O)NCC(=O)N1[C@H](C(=O)N[C@@H](CCCC)C(=O)N2CCC[C@@]2(C)C(=O)N[C@@H](CC(=O)O)Cc2ccccc2)C[C@@H]2CCCC[C@@H]21) [SEQ ID NO: 570],8.01 nM,19.8 nM
Palmitoyl-[AC4Abu][AEEA][AEEA][dQ]RP[NMeR][Cha]SHKG[Oic][Nle][Ac5c][Phe(4-Cl)]-OH (SMILES CCCCCCCCCCCCCCCC(=O)NCCC(C(=O)O)C(=O)NCCOCCOCC(=O)NCCOCCOCC(=O)N[C@H](CCC(N)=O)C(=O)N[C@@H](CCCNC(=N)N)C(=O)N1CCC[C@H]1C(=O)N(C)[C@@H](CCCNC(=N)N)C(=O)N[C@@H](CC1CCCCC1)C(=O)N[C@@H](CO)C(=O)N[C@@H](Cc1c[nH]cn1)C(=O)N[C@@H](CCCCN)C(=O)NCC(=O)N1[C@H](C(=O)N[C@@H](CCCC)C(=O)NC2(C(=O)N[C@@H](Cc3ccc(Cl)cc3)C(=O)O)CCCC2)C[C@@H]2CCCC[C@@H]21) [SEQ ID NO: 585],6.73 nM,22.3 nM
Palmitoyl-[AC4Abu][AEEA][AEEA][dQ]RP[NMeR][Cha]SHKG[Oic][Nle][β3hP][d(β3hF)]-OH (SMILES CCCCCCCCCCCCCCCC(=O)NCCC(C(=O)O)C(=O)NCCOCCOCC(=O)NCCOCCOCC(=O)N[C@H](CCC(N)=O)C(=O)N[C@@H](CCCNC(=N)N)C(=O)N1CCC[C@H]1C(=O)N(C)[C@@H](CCCNC(=N)N)C(=O)N[C@@H](CC1CCCCC1)C(=O)N[C@@H](CO)C(=O)N[C@@H](Cc1c[nH]cn1)C(=O)N[C@@H](CCCCN)C(=O)NCC(=O)N1[C@H](C(=O)N[C@@H](CCCC)C(=O)N2CCC[C@H]2CC(=O)N[C@@H](CC(=O)O)Cc2ccccc2)C[C@@H]2CCCC[C@@H]21) [SEQ ID NO: 571],1.49 nM,4.81 nM
Palmitoyl-[AC4Abu][AEEA][AEEA][dQ]RP[NMeR][Cha]SHKG[Oic][Nle][β3hF]-OH (SMILES CCCCCCCCCCCCCCCC(=O)NCCC(C(=O)O)C(=O)NCCOCCOCC(=O)NCCOCCOCC(=O)N[C@H](CCC(N)=O)C(=O)N[C@@H](CCCNC(=N)N)C(=O)N1CCC[C@H]1C(=O)N(C)[C@@H](CCCNC(=N)N)C(=O)N[C@@H](CC1CCCCC1)C(=O)N[C@@H](CO)C(=O)N[C@@H](Cc1c[nH]cn1)C(=O)N[C@@H](CCCCN)C(=O)NCC(=O)N1[C@H](C(=O)N[C@@H](CCCC)C(=O)N[C@H](CC(=O)O)Cc2ccccc2)C[C@@H]2CCCC[C@@H]21) [SEQ ID NO: 578],1.8 nM,4.9 nM
Palmitoyl-[AC4Abu][AEEA][AEEA][dQ]RP[NMeR][Cha]SHKG[Oic][Nle]P[β3hF]-OH (SMILES CCCCCCCCCCCCCCCC(=O)NCCC(C(=O)O)C(=O)NCCOCCOCC(=O)NCCOCCOCC(=O)N[C@H](CCC(N)=O)C(=O)N[C@@H](CCCNC(=N)N)C(=O)N1CCC[C@H]1C(=O)N(C)[C@@H](CCCNC(=N)N)C(=O)N[C@@H](CC1CCCCC1)C(=O)N[C@@H](CO)C(=O)N[C@@H](Cc1c[nH]cn1)C(=O)N[C@@H](CCCCN)C(=O)NCC(=O)N1[C@H](C(=O)N[C@@H](CCCC)C(=O)N2CCC[C@H]2C(=O)N[C@H](CC(=O)O)Cc2ccccc2)C[C@@H]2CCCC[C@@H]21) [SEQ ID NO: 575],3.58 nM,14.1 nM
Palmitoyl-[AC4Abu][AEEA][AEEA][dQ]RP[NMeR][Cha]SHKG[Oic][Nle][Aib][β3hF]-OH (SMILES CCCCCCCCCCCCCCCC(=O)NCCC(C(=O)O)C(=O)NCCOCCOCC(=O)NCCOCCOCC(=O)N[C@H](CCC(N)=O)C(=O)N[C@@H](CCCNC(=N)N)C(=O)N1CCC[C@H]1C(=O)N(C)[C@@H](CCCNC(=N)N)C(=O)N[C@@H](CC1CCCCC1)C(=O)N[C@@H](CO)C(=O)N[C@@H](Cc1c[nH]cn1)C(=O)N[C@@H](CCCCN)C(=O)NCC(=O)N1[C@H](C(=O)N[C@@H](CCCC)C(=O)NC(C)(C)C(=O)N[C@H](CC(=O)O)Cc2ccccc2)C[C@@H]2CCCC[C@@H]21) [SEQ ID NO: 577],1.78 nM,4.42 nM
Palmitoyl-[AC4Abu][AEEA][AEEA][dQ]RP[NMeR][Cha]SHKG[Oic][Nle][Nip][Phe(4-Cl)]-OH [SEQ ID NO: 586],7.96 nM,23 nM
Palmitoyl-[AC4Abu][AEEA][AEEA][dQ]RP[NMeR][Cha]SHKG[Oic][Nle][d(β3hF)]-OH (SMILES CCCCCCCCCCCCCCCC(=O)NCCC(C(=O)O)C(=O)NCCOCCOCC(=O)NCCOCCOCC(=O)N[C@H](CCC(N)=O)C(=O)N[C@@H](CCCNC(=N)N)C(=O)N1CCC[C@H]1C(=O)N(C)[C@@H](CCCNC(=N)N)C(=O)N[C@@H](CC1CCCCC1)C(=O)N[C@@H](CO)C(=O)N[C@@H](Cc1c[nH]cn1)C(=O)N[C@@H](CCCCN)C(=O)NCC(=O)N1[C@H](C(=O)N[C@@H](CCCC)C(=O)N[C@@H](CC(=O)O)Cc2ccccc2)C[C@@H]2CCCC[C@@H]21) [SEQ ID NO: 573],2.17 nM,4.24 nM
Palmitoyl-[AC4Abu][AEEA][AEEA][dQ]RP[NMeR][Cha]SHKG[Oic][Nle][Ac6c][Phe(4-Cl)]-OH (SMILES CCCCCCCCCCCCCCCC(=O)NCCC(C(=O)O)C(=O)NCCOCCOCC(=O)NCCOCCOCC(=O)N[C@H](CCC(N)=O)C(=O)N[C@@H](CCCNC(=N)N)C(=O)N1CCC[C@H]1C(=O)N(C)[C@@H](CCCNC(=N)N)C(=O)N[C@@H](CC1CCCCC1)C(=O)N[C@@H](CO)C(=O)N[C@@H](Cc1c[nH]cn1)C(=O)N[C@@H](CCCCN)C(=O)NCC(=O)N1[C@H](C(=O)N[C@@H](CCCC)C(=O)NC2(C(=O)N[C@@H](Cc3ccc(Cl)cc3)C(=O)O)CCCCC2)C[C@@H]2CCCC[C@@H]21) [SEQ ID NO: 584],22.9 nM,52.2 nM
